Drawing on US20160346368A1, this text covers MFI for two substances.

Experiment [1] concerns the target PVR Q82K+S72N double variant-CD4TM-GFP (human). Kind of experiment: flow cytometry; HEK-293T cells transfected with PVR Q82K+S72N double variant-CD4TM-GFP; CD226-Fc at 10 ug/ml (heading of FIG. 8A); PE anti-human Fc. In general terms: Flow cytometry measures light scatter and fluorescence of single cells or particles in a stream.
The target in experiment [2] is PVR S72N variant-CD4TM-GFP (human). The experiment can be described thus: flow cytometry; HEK-293T cells transfected with PVR S72N variant-CD4TM-GFP; CD226-Fc at 1 ug/ml; PE anti-human Fc.
Experiment [3] addresses PVR Q82K+S72N double variant-CD4TM-GFP (human). The experiment can be described thus: flow cytometry; HEK-293T cells transfected with PVR Q82K+S72N double variant-CD4TM-GFP; CD226-Fc at 1 ug/ml (heading of FIG. 8A); PE anti-human Fc.
Experiment [4] concerns the target PVR S72N variant-CD4TM-GFP (human). Kind of experiment: flow cytometry; HEK-293T cells transfected with PVR S72N variant-CD4TM-GFP; CD226-Fc at 10 ug/ml; PE anti-human Fc.
The target of experiment [5] is PVR Q82K variant-CD4TM-GFP (human). The experiment can be described thus: flow cytometry; HEK-293T cells transfected with PVR Q82K variant-CD4TM-GFP; CD226-Fc at 10 ug/ml (heading of FIG. 8A); PE anti-human Fc.
In experiment [6] the target is PVR-CD4TM-GFP (human). Kind of experiment: flow cytometry; HEK-293T cells transfected with PVR-CD4TM-GFP; CD226-Fc at 10 ug/ml; PE anti-human Fc.
For experiment [7], the target named is PVR-CD4TM-GFP (human). The experiment can be described thus: flow cytometry; HEK-293T cells transfected with PVR-CD4TM-GFP; CD226-Fc at 1 ug/ml; PE anti-human Fc.
In experiment [8] the target is PVR Q82K variant-CD4TM-GFP (human). Kind of experiment: flow cytometry; HEK-293T cells transfected with PVR Q82K variant-CD4TM-GFP; CD226-Fc at 1 ug/ml (heading of FIG. 8A); PE anti-human Fc.
Experiment [9] shares this target. The experiment can be described thus: flow cytometry; HEK-293T cells transfected with PVR Q82K variant-CD4TM-GFP; PE anti-human Fc.
Experiment [10] has as its target PVR S72N variant-CD4TM-GFP (human). The experiment can be described thus: flow cytometry; HEK-293T cells transfected with PVR S72N variant-CD4TM-GFP; PE anti-human Fc.
In experiment [11] the target is PVR Q82K+S72N double variant-CD4TM-GFP (human). Kind of experiment: flow cytometry; HEK-293T cells transfected with PVR Q82K+S72N double variant-CD4TM-GFP; PE anti-human Fc.
Experiment [12] concerns the target PVR-CD4TM-GFP (human). Kind of experiment: flow cytometry; HEK-293T cells transfected with PVR-CD4TM-GFP; Fc fusion detected with PE anti-human Fc; PE against FITC (GFP).

CD226-Fc, sequence (Q15762 19-254): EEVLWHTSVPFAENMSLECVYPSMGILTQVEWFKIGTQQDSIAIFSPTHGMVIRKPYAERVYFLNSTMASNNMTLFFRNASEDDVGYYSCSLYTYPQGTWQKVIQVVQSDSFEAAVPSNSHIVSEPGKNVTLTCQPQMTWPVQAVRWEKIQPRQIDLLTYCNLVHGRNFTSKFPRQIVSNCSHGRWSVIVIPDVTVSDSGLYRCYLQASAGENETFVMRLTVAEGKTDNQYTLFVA

On to “CD226-Fc (from UniProt Q15762 19-254) (Fc fusion)”, for which the MFI in experiment [1] worked out at 93.3; in [2] it was 16.5; in experiment [3] it was 17.9; in experiment [4] it was 104; in [5], 521; in the experiment with PVR-CD4TM-GFP (human) [6], 409. Besides, the values for the MFI (with PVR-CD4TM-GFP (human) [7]; in experiment [8]) were 205 and 247, respectively.

As to “TIGIT-Fc (from UniProt Q495A1 22-141) (Fc fusion)”, the MFI turned out to be 605 in experiment [9], 530 in experiment [10], 795 in experiment [11] and 389 in the experiment with PVR-CD4TM-GFP (human) [12].
